This data set deals with the molecule itself. The experiment in a line: native gel or EMSA; 5 µg holoprotein on a native 6% PAGE gel, 4 °C, 100 V, 3 h, Coomassie; dimerisation.

Here are results for two proteins from paper PMC6746701, “A phyB-PIF1-SPA1 kinase regulatory complex promotes photomorphogenesis in Arabidopsis” (Nature Communications, 2019).

B1: phyB-GFP ΔC holoprotein (Pichia pastoris purified) (domain or fragment, Arabidopsis, UniProt P14713 1-1092, looked up)
chain: MVSGVGGSGGGRGGGRGGEEEPSSSHTPNNRRGGEQAQSSGTKSLRPRSNTESMSKAIQQYTVDARLHAVFEQSGESGKSFDYSQSLKTTTYGSSVPEQQITAYLSRIQRGGYIQPFGCMIAVDESSFRIIGYSENAREMLGIMPQSVPTLEKPEILAMGTDVRSLFTSSSSILLERAFVAREITLLNPVWIHSKNTGKPFYAILHRIDVGVVIDLEPARTEDPALSIAGAVQSQKLAVRAISQLQALPGGDIKLLCDTVVESVRDLTGYDRVMVYKFHEDEHGEVVAESKRDDLEPYIGLHYPATDIPQASRFLFKQNRVRMIVDCNATPVLVVQDDRLTQSMCLVGSTLRAPHGCHSQYMANMGSIASLAMAVIINGNEDDGSNVASGRSSMRLWGLVVCHHTSSRCIPFPLRYACEFLMQAFGLQLNMELQLALQMSEKRVLRTQTLLCDMLLRDSPAGIVTQSPSIMDLVKCDGAAFLYHGKYYPLGVAPSEVQIKDVVEWLLANHADSTGLSTDSLGDAGYPGAAALGDAVCGMAVAYITKRDFLFWFRSHTAKEIKWGGAKHHPEDKDDGQRMHPRSSFQAFLEVVKSRSQPWETAEMDAIHSLQLILRDSFKESEAAMNSKVVDGVVQPCRDMAGEQGIDELGAVAREMVRLIETATVPIFAVDAGGCINGWNAKIAELTGLSVEEAMGKSLVSDLIYKENEATVNKLLSRALRGDEEKNVEVKLKTFSPELQGKAVFVVVNACSSKDYLNNIVGVCFVGQDVTSQKIVMDKFINIQGDYKAIVHSPNPLIPPIFAADENTCCLEWNMAMEKLTGWSRSEVIGKMIVGEVFGSCCMLKGPDALTKFMIVLHNAIGGQDTDKFPFPFFDRNGKFVQALLTANKRVSLEGKVIGAFCFLQIPSPELQQALAVQRRQDTECFTKAKELAYICQVIKNPLSGMRFANSLLEATDLNEDQKQLLETSVSCEKQISRIVGDMDLESIEDGSFVLKREEFFLGSVINAIVSQAMFLLRDRGLQLIRDIPEEIKSIEVFGDQIRIQQLLAEFLLSIIRYAPSQEWVEIHLSQLSKQMADGFAAIRTEFRMACP
modifications: holoprotein (chromophore bound)
notes: phytochrome B (phyB), Arabidopsis, residues 1-1092 (lacks the last 80 amino acids); source: Pichia pastoris, purified; not shown: GFP, C-terminal, kept
As for B1, the binding result is “binds”.

B2: phyB-GFP FL holoprotein (Pichia pastoris purified) (receptor, Arabidopsis, UniProt P14713 1-1172, looked up)
chain: MVSGVGGSGGGRGGGRGGEEEPSSSHTPNNRRGGEQAQSSGTKSLRPRSNTESMSKAIQQYTVDARLHAVFEQSGESGKSFDYSQSLKTTTYGSSVPEQQITAYLSRIQRGGYIQPFGCMIAVDESSFRIIGYSENAREMLGIMPQSVPTLEKPEILAMGTDVRSLFTSSSSILLERAFVAREITLLNPVWIHSKNTGKPFYAILHRIDVGVVIDLEPARTEDPALSIAGAVQSQKLAVRAISQLQALPGGDIKLLCDTVVESVRDLTGYDRVMVYKFHEDEHGEVVAESKRDDLEPYIGLHYPATDIPQASRFLFKQNRVRMIVDCNATPVLVVQDDRLTQSMCLVGSTLRAPHGCHSQYMANMGSIASLAMAVIINGNEDDGSNVASGRSSMRLWGLVVCHHTSSRCIPFPLRYACEFLMQAFGLQLNMELQLALQMSEKRVLRTQTLLCDMLLRDSPAGIVTQSPSIMDLVKCDGAAFLYHGKYYPLGVAPSEVQIKDVVEWLLANHADSTGLSTDSLGDAGYPGAAALGDAVCGMAVAYITKRDFLFWFRSHTAKEIKWGGAKHHPEDKDDGQRMHPRSSFQAFLEVVKSRSQPWETAEMDAIHSLQLILRDSFKESEAAMNSKVVDGVVQPCRDMAGEQGIDELGAVAREMVRLIETATVPIFAVDAGGCINGWNAKIAELTGLSVEEAMGKSLVSDLIYKENEATVNKLLSRALRGDEEKNVEVKLKTFSPELQGKAVFVVVNACSSKDYLNNIVGVCFVGQDVTSQKIVMDKFINIQGDYKAIVHSPNPLIPPIFAADENTCCLEWNMAMEKLTGWSRSEVIGKMIVGEVFGSCCMLKGPDALTKFMIVLHNAIGGQDTDKFPFPFFDRNGKFVQALLTANKRVSLEGKVIGAFCFLQIPSPELQQALAVQRRQDTECFTKAKELAYICQVIKNPLSGMRFANSLLEATDLNEDQKQLLETSVSCEKQISRIVGDMDLESIEDGSFVLKREEFFLGSVINAIVSQAMFLLRDRGLQLIRDIPEEIKSIEVFGDQIRIQQLLAEFLLSIIRYAPSQEWVEIHLSQLSKQMADGFAAIRTEFRMACPGEGLPPELVRDMFHSSRWTSPEGLGLSVCRKILKLMNGEVQYIRESERSYFLIILELPVPRKRPLSTASGSGDMMLMMPY
modifications: holoprotein (chromophore bound)
notes: phytochrome B (phyB), Arabidopsis, full length; the host named for this assay is Pichia pastoris; source: Pichia pastoris, purified; not shown: GFP, C-terminal, kept
On to B2, for which the binding result is given as “binds”.
